Values of other authors in PMC4740388.
“And” between values parts separate entries of the source, which are not always exact repeats. Identical values can stand only once. Like-named read-outs stand apart in the source and are kept apart here. Each block holds one substance with its values, some of them ahead of it.

Legend:
[1] = target: Integrin αvβ3 (Homo sapiens) (UniProt P06756)
[2] = target: Nucleolin (Homo sapiens) (UniProt P19338)
[3] = target: Integrin α5β1 (Homo sapiens) (UniProt P08648)
[4] = target: Integrin αvβ3 (Homo sapiens) (UniProt P06756); remark: listed apart in the source
[5] = target: VEGFR2 ectodomain (Homo sapiens) (UniProt P35968)
[6] = target: VEGFR1 ectodomain (Homo sapiens) (UniProt P17948)

Sequence of Endostatin endostatin (P39060 1569-1754): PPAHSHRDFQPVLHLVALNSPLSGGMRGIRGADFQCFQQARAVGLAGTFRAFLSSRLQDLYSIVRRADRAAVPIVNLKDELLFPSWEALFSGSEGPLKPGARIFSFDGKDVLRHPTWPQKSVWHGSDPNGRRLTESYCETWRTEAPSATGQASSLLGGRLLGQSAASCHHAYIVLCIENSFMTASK
Sequence of Integrin αvβ3 (Homo sapiens) (P06756 31-992, chain 1 of 2): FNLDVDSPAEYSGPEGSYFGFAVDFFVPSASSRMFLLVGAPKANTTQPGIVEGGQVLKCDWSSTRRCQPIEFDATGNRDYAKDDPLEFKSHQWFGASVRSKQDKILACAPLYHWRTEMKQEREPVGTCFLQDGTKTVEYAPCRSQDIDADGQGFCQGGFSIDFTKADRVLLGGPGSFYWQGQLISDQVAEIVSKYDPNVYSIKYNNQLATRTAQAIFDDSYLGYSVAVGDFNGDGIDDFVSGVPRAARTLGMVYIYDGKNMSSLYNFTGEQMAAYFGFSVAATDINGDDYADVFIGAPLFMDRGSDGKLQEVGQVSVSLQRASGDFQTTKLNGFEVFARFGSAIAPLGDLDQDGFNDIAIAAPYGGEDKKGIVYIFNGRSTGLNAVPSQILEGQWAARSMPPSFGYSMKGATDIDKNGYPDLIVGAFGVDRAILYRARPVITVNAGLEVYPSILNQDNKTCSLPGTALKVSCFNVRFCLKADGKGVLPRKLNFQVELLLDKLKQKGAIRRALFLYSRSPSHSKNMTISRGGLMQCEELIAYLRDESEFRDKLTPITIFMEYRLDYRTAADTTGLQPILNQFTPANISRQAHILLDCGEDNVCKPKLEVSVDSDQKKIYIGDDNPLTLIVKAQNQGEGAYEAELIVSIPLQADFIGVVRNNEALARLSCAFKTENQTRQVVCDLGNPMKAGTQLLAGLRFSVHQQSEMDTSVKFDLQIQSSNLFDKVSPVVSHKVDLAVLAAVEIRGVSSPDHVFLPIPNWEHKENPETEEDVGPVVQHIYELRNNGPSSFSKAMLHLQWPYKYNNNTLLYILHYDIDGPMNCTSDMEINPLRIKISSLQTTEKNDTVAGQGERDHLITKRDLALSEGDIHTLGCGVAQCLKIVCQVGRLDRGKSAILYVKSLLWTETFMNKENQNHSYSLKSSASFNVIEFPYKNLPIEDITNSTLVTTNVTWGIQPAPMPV
Sequence of Integrin αvβ3 (Homo sapiens) (P05106 27-718, chain 2 of 2, further chain): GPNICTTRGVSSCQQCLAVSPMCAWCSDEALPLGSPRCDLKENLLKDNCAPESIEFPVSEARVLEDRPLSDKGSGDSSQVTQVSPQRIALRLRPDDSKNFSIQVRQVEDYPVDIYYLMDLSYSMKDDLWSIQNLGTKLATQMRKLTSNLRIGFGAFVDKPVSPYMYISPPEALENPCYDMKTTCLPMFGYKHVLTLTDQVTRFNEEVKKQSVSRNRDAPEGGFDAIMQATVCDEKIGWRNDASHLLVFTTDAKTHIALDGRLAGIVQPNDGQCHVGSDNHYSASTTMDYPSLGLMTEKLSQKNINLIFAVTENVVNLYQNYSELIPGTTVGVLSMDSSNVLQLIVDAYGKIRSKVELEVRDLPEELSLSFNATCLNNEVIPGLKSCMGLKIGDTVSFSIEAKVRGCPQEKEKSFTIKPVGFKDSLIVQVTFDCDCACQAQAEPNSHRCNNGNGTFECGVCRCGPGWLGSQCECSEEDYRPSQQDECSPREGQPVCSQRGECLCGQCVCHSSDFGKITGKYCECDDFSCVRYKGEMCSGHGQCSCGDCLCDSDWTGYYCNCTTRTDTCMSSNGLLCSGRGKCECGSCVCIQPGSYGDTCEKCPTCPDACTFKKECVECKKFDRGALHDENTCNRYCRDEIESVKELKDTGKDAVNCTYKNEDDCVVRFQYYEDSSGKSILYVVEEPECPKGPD
Sequence of Integrin α5β1 (Homo sapiens) (P08648 42-995, chain 1 of 2): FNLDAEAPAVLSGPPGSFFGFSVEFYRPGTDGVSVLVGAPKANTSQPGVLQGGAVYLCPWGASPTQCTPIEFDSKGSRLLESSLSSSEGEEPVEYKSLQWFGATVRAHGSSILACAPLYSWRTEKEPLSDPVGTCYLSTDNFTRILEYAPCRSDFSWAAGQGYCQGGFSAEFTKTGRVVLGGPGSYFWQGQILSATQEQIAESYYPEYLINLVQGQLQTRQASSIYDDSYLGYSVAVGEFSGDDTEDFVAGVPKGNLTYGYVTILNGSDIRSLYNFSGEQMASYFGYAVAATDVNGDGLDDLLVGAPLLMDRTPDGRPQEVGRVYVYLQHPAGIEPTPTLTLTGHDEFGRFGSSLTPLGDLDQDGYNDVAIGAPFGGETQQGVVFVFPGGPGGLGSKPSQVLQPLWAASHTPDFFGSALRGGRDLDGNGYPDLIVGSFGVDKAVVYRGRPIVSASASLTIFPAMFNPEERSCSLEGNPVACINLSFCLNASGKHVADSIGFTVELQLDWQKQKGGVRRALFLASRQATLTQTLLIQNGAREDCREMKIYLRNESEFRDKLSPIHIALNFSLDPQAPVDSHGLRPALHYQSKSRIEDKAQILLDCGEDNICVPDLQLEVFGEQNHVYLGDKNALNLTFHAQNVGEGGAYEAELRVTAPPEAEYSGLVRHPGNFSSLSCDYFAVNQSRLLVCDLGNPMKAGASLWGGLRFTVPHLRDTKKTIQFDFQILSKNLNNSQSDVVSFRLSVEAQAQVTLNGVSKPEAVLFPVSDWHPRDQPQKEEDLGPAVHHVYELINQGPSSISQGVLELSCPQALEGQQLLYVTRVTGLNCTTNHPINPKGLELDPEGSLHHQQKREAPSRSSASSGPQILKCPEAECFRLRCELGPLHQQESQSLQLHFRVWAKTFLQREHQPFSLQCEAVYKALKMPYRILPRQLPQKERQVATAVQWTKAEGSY
Sequence of Integrin α5β1 (Homo sapiens) (P05556 21-728, chain 2 of 2, further chain): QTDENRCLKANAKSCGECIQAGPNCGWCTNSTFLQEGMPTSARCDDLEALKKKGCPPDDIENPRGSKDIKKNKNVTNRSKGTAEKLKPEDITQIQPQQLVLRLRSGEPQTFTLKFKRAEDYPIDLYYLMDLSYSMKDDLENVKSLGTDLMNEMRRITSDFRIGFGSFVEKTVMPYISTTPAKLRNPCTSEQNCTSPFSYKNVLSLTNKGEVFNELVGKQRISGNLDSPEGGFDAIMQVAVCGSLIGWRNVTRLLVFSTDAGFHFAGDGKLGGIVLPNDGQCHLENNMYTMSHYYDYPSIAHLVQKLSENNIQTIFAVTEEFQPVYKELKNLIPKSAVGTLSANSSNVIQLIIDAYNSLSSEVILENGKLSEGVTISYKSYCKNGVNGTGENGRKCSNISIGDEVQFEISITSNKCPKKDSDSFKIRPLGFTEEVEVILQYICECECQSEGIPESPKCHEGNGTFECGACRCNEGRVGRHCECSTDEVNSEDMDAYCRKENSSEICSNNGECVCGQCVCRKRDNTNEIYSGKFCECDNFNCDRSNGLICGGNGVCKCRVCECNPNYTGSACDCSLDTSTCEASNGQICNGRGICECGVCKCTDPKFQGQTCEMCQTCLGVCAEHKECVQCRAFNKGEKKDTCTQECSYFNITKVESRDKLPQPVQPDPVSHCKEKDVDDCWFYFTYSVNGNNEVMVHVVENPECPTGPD
Sequence of Endorepellin endorepellin (P98160 3684-4391): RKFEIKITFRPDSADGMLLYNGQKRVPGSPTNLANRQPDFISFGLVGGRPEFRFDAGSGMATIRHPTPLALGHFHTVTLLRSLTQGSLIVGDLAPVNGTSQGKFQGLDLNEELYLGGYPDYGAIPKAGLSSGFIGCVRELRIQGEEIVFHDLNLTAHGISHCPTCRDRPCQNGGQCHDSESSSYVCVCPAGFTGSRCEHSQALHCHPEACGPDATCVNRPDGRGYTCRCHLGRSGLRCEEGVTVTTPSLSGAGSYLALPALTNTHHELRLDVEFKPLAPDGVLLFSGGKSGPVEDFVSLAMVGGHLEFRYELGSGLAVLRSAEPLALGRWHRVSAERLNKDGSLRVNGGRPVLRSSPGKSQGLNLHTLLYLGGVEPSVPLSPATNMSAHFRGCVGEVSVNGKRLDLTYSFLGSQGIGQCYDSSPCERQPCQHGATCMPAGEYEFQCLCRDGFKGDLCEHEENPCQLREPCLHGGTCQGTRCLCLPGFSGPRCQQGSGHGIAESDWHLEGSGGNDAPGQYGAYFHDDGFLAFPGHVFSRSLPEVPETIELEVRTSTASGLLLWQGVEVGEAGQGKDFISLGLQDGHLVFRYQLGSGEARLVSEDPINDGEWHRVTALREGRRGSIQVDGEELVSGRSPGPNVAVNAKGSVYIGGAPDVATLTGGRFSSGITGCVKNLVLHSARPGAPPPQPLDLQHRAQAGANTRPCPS
Sequence of VEGFR2 ectodomain (Homo sapiens) (P35968 20-764): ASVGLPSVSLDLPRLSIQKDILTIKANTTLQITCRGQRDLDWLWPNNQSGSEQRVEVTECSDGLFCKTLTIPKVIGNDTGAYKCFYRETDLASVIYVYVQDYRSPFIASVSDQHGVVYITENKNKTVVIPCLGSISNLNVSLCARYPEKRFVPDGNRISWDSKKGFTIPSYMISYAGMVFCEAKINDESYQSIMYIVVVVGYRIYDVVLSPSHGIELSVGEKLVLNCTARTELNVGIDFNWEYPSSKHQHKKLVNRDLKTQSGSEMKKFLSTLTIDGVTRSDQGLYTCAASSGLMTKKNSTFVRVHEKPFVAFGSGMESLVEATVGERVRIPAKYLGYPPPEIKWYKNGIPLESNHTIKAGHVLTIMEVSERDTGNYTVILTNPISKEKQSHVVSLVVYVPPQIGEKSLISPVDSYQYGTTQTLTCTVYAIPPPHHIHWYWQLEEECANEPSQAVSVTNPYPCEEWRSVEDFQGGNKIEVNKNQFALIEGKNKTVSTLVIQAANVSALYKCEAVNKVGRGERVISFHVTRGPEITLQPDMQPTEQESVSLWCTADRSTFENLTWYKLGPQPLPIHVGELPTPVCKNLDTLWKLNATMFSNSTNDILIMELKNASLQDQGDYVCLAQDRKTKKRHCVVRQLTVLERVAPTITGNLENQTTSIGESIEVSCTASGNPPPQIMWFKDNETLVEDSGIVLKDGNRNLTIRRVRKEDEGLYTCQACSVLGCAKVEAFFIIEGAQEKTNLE

- Kd [1]: 0.148 µM
Substance: Tetrastatin tetrastatin (from UniProt P53420)

- Kd [2]: 0.013 µM
- Kd [3]: 0.975 µM and 0.451 µM
- Kd [4]: 0.501 µM and 1.2 µM
Substance: Endostatin endostatin (from UniProt P39060)

- Kd [5]: 0.0009 µM
- Kd [6]: 0.001 µM
Substance: Endorepellin endorepellin (from UniProt P98160)
